From article PMC7532178, “Interaction of protocadherin-15 with the scaffold protein whirlin supports its anchoring of hair-bundle lateral links in cochlear hair cells” (Scientific Reports, 2020)

B1: whirlin-NTR-PDZ1-Hp1 (aa residues 2-265) [mouse] / CDH23 C-terminal peptide (biotin-TTDS-VIMESPLEITEL) [modified: biotin-TTDS (trioxatridecan-succinamic acid spacer) on the N-terminus; biotin-TTDS (trioxatridecan-succinamic acid spacer) on … (parent complex)
chain 1: GAMGSTSNAQLDGLSVSSSSTGSLGSAAAAAGGGGGAGLRLLSANVRQLHQALTALLSEPEREQFTHCLNAYHARRNVFDLVRTLRVLLDSPVKRRLLPMLRLVIPRSDQLLFDQYTAEGLYLPATTPYRQPAWAAPDGAGPGEVRLVSLRRAKAHEGLGFSIRGGSEHGVGIYVSLVEPGSLAEKEGLRVGDQILRVNDKSLARVTHAEAVKALKGSKKLVLSVYSAGRIPGGYVTNHIYTWVDPQGRSTSPPSSLPQPHGSTLRQREDD
chain 2: VIMESPLEITEL
B2: whirlin-NTR-PDZ1-Hp1 (aa residues 2-265) [mouse] / PCDH15-CD2 C-terminal peptide (biotin-TTDS-GANSEQYNTAL) [modified: biotin-TTDS (trioxatridecan-succinamic acid spacer) on the N-terminus; biotin-TTDS (trioxatridecan-succinamic acid … (parent complex)
chain 1: B1 chain 1
chain 2: GANSEQYNTAL
B3: whirlin-NTR-PDZ1-Hp1 (aa residues 2-265) [mouse] / PCDH15-CD1 C-terminal peptide (biotin-TTDS-GIDVQPHSQSTSL) [modified: biotin-TTDS (trioxatridecan-succinamic acid spacer) on the N-terminus; biotin-TTDS (trioxatridecan-succinamic acid … (parent complex)
chain 1: B1 chain 1
chain 2: GIDVQPHSQSTSL
B4: whirlin-NTR-PDZ1-Hp1 (aa residues 2-265) [mouse] / PCDH15-CD3 C-terminal peptide (biotin-TTDS-MGPWNSLHIPMTKL) [modified: biotin-TTDS (trioxatridecan-succinamic acid spacer) on the N-terminus; biotin-TTDS (trioxatridecan-succinamic acid … (parent complex)
chain 1: B1 chain 1
chain 2: MGPWNSLHIPMTKL

Variants of: B1
Assay: SPR; whirlin construct at 10 μM; peptide immobilized via N-terminal biotin tag; parent: 11; read off a plot
With chain 1 GAMGSTSNAQLDGLSVSSSSTGSLGSAAAAAGGGGGAGLRLLSANVRQLHQALTALLSEPEREQFTHCLNAYHARRNVFDLVRTLRVLLDSPVKRRLLPMLRLVIPRSDQLLFDQYTAEGLYLPATTPYRQPAWAAPDGAGPGEVRLVSLRRAKAHEGLGFSIRGGSEHGVGIYVSLVEPGSLAEKEGLRVGDQILRVNDKSLARVTYAEAVKALKGSKKLVLSVYSAGRIPGGYVTNHIYTWVDPQGRSTSPPSSLPQPHGSTLRQREDD [chain 1 H208Y] the response was about 1 % site occupancy.
chain 1 GAMGSTSNAQLDGLSVSSSSTGSLGSAAAAAGGGGGAGLRLLSANVRQLHQALTALLSEPEREQFTHCLNAYHARRNVFDLVRTLRVLLDSPVKRRLLPMLRLVIPRSDQLLFDQYTAEGLYLPATTPYRQPAWAAPDGAGPGEVRLVSLRRAKAHEGLAFSIRGGSEHGVGIYVSLVEPGSLAEKEGLRVGDQILRVNDKSLARVTHAEAVKALKGSKKLVLSVYSAGRIPGGYVTNHIYTWVDPQGRSTSPPSSLPQPHGSTLRQREDD [chain 1 G160A] showed a response of about 1.5 % site occupancy.

Variants of: B2
Assay: SPR; whirlin construct at 10 μM; peptide immobilized via N-terminal biotin tag; parent: 15; read off a plot
chain 1 GAMGSTSNAQLDGLSVSSSSTGSLGSAAAAAGGGGGAGLRLLSANVRQLHQALTALLSEPEREQFTHCLNAYHARRNVFDLVRTLRVLLDSPVKRRLLPMLRLVIPRSDQLLFDQYTAEGLYLPATTPYRQPAWAAPDGAGPGEVRLVSLRRAKAHEGLGFSIRGGSEHGVGIYVSLVEPGSLAEKEGLRVGDQILRVNDKSLARVTYAEAVKALKGSKKLVLSVYSAGRIPGGYVTNHIYTWVDPQGRSTSPPSSLPQPHGSTLRQREDD [chain 1 H208Y] was tested, and the response was about 0.5 % site occupancy.
Work on chain 1 GAMGSTSNAQLDGLSVSSSSTGSLGSAAAAAGGGGGAGLRLLSANVRQLHQALTALLSEPEREQFTHCLNAYHARRNVFDLVRTLRVLLDSPVKRRLLPMLRLVIPRSDQLLFDQYTAEGLYLPATTPYRQPAWAAPDGAGPGEVRLVSLRRAKAHEGLAFSIRGGSEHGVGIYVSLVEPGSLAEKEGLRVGDQILRVNDKSLARVTHAEAVKALKGSKKLVLSVYSAGRIPGGYVTNHIYTWVDPQGRSTSPPSSLPQPHGSTLRQREDD [chain 1 G160A] yielded a response of about 2.5 % site occupancy.

Variants of: B3
Assay: SPR; whirlin construct at 10 μM; peptide immobilized via N-terminal biotin tag; parent: 23; read off a plot
Work on chain 1 GAMGSTSNAQLDGLSVSSSSTGSLGSAAAAAGGGGGAGLRLLSANVRQLHQALTALLSEPEREQFTHCLNAYHARRNVFDLVRTLRVLLDSPVKRRLLPMLRLVIPRSDQLLFDQYTAEGLYLPATTPYRQPAWAAPDGAGPGEVRLVSLRRAKAHEGLAFSIRGGSEHGVGIYVSLVEPGSLAEKEGLRVGDQILRVNDKSLARVTHAEAVKALKGSKKLVLSVYSAGRIPGGYVTNHIYTWVDPQGRSTSPPSSLPQPHGSTLRQREDD [chain 1 G160A] yielded a response of about 2 % site occupancy.
chain 1 GAMGSTSNAQLDGLSVSSSSTGSLGSAAAAAGGGGGAGLRLLSANVRQLHQALTALLSEPEREQFTHCLNAYHARRNVFDLVRTLRVLLDSPVKRRLLPMLRLVIPRSDQLLFDQYTAEGLYLPATTPYRQPAWAAPDGAGPGEVRLVSLRRAKAHEGLGFSIRGGSEHGVGIYVSLVEPGSLAEKEGLRVGDQILRVNDKSLARVTYAEAVKALKGSKKLVLSVYSAGRIPGGYVTNHIYTWVDPQGRSTSPPSSLPQPHGSTLRQREDD [chain 1 H208Y] showed a response of about -1 % site occupancy.

Variants of: B4
Assay: SPR; whirlin construct at 10 μM; peptide immobilized via N-terminal biotin tag; parent: 29; read off a plot
chain 1 GAMGSTSNAQLDGLSVSSSSTGSLGSAAAAAGGGGGAGLRLLSANVRQLHQALTALLSEPEREQFTHCLNAYHARRNVFDLVRTLRVLLDSPVKRRLLPMLRLVIPRSDQLLFDQYTAEGLYLPATTPYRQPAWAAPDGAGPGEVRLVSLRRAKAHEGLAFSIRGGSEHGVGIYVSLVEPGSLAEKEGLRVGDQILRVNDKSLARVTHAEAVKALKGSKKLVLSVYSAGRIPGGYVTNHIYTWVDPQGRSTSPPSSLPQPHGSTLRQREDD [chain 1 G160A] was tested, and the response was about 9.5 % site occupancy.
Variant chain 1 GAMGSTSNAQLDGLSVSSSSTGSLGSAAAAAGGGGGAGLRLLSANVRQLHQALTALLSEPEREQFTHCLNAYHARRNVFDLVRTLRVLLDSPVKRRLLPMLRLVIPRSDQLLFDQYTAEGLYLPATTPYRQPAWAAPDGAGPGEVRLVSLRRAKAHEGLGFSIRGGSEHGVGIYVSLVEPGSLAEKEGLRVGDQILRVNDKSLARVTYAEAVKALKGSKKLVLSVYSAGRIPGGYVTNHIYTWVDPQGRSTSPPSSLPQPHGSTLRQREDD [chain 1 H208Y] has a response of about 1.5 % site occupancy.
